Measurements taken from patent US20050287163A1, “Mycoplasma polypeptides” (priority 2002, published 2005).
Entries after “also recorded” stand apart in the source; their conditions may differ.

B1: soybean trypsin inhibitor: soybean trypsin inhibitor (protein, UniProt P01070 25-205, looked up)
Trypsin inhibitor A: DFVLDNEGNPLENGGTYYILSDITAFGGIRAAPTGNERCPLTVVQSRNELDKGIGTIISSPYRIRFIAEGHPLSLKFDSFAVIMLCVGIPTEWSVVEDLPEGPAVKIGENKDAMDGWFRLERVSDDEFNNYKLVFCPQQAEDDKCGDIGISIDHDDGTRRLVVSKNKPLVVQFQKLDKESL
B2: proteinase K: proteolytic enzyme used to pretreat the membrane (protein, UniProt P06873 106-384, looked up)
Proteinase K: AAQTNAPWGLARISSTSPGTSTYYYDESAGQGSCVYVIDTGIEASHPEFEGRAQMVKTYYYSSRDGNGHGTHCAGTVGSRTYGVAKKTQLFGVKVLDDNGSGQYSTIIAGMDFVASDKNNRNCPKGVVASLSLGGGYSSSVNSAAARLQSSGVMVAVAAGNNNADARNYSPASEPSVCTVGASDRYDRRSSFSNYGSVLDIFGPGTSILSTWIGGSTRSISGTSMATPHVAGLAAYLMTLGKTTAASACRYIADTANKGDLSNIPFGTVNLLAYNNYQA
B3: papain: proteolytic enzyme used to pretreat the membrane (protein, UniProt P00784 134-345, looked up)
Papain: IPEYVDWRQKGAVTPVKNQGSCGSCWAFSAVVTIEGIIKIRTGNLNEYSEQELLDCDRRSYGCNGGYPWSALQLVAQYGIHYRNTYPYEGVQRYCRSREKGPYAAKTDGVRQVQPYNEGALLYSIANQPVSVVLEAAGKDFQLYRGGIFVGPCGNKVDHAVAAVGYGPNYILIKNSWGTGWGENGYIRIKRGTGNSYGVCGLYTSSFYPVKN

Columns and labels:
[1] = system: trypsin-induced [Ca2+]i increase in swine ciliated epithelia; assay: Soybean trypsin inhibitor on trypsin-induced [Ca2+]i increase; format: cell-based; details: inhibitor 10 U/mL; trypsin 10 U/mL
Excerpt: (§1) According to a recent report, trypsin at 0.1 U/mL can increase [Ca^2+]i in guinea pig tracheal epithelia (Oshiro et al., Life Sci., 71:547-558 (2002)). Since the estimated trypsin concentration in the [Ca^2+]i experiments described herein is about 1 U/mL, we tested whether trypsin plays a role in the observed tryptic fragment-induced [Ca^2+]i increase.

[2] = system: tryptic Mhyo polypeptide fragment-induced [Ca2+]i increase in ciliated tracheal epithelia; assay: Soybean trypsin inhibitor on tryptic Mhyo polypeptide fragment-induced [Ca2+]i increase; format: cell-based, swine; details: inhibitor 10 U/mL, incubated with preparation 37° C. 10 minutes
Method: FIG. 14 is a graph plotting [Ca^2+]i increase in porcine ciliated tracheal cells incubated with tryptic Mhyo membrane preparation pretreated with a soybean trypsin inhibitor (TI). […] TI was incubated with the tryptic membrane preparation at 37° C. for 10 minutes prior to administration. […] Each trace depicts [Ca^2+]i changes in one cell.
as §1

[3] = system: Mhyo membrane-induced [Ca2+]i increase in ciliated tracheal cells; assay: Protease pretreatment of Mhyo membrane, effect on membrane-induced [Ca2+]i increase; format: cell-based, porcine; details: pretreatment of the membrane for 8 hours, 37° C.
Method: FIG. 6 contains four graphs plotting [Ca^2+]i response in ciliated porcine tracheal cells inoculated with Mhyo membranes. Each trace indicates the [Ca^2+]i changes in each tracheal cell. The arrows indicate when administration occurred. (A) The membrane preparation (100 μg/mL) increased [Ca^2+]i. (B) Digestion with proteinase K blocked the membrane-induced increase in [Ca^2+]i. The membrane (100 μg/0.1 mL PBS) was incubated with proteinase K (2 μg) at 37° C. for 8 hours before it was applied to tracheal cells in 0.9 mL Krebs-Ringer bicarbonate (KRB) buffer. (C) Digestion with trypsin potentiated the membrane-induced increase in [Ca^2+]i. The membrane (100 μg/0.1 mL PBS) was incubated with trypsin (6 μg) at 37° C. for 30 minutes before it was applied to tracheal cells in 0.9 mL KRB. […] The soluble protein was prepared by subjecting the trypsinized membrane to ultracentrifigation (100,000× g, 60 minutes) to obtain the supernatant.
Mycoplasmas lack cell walls and have only one type of membrane, the plasma membrane (Razin S. (1993) Mycoplasma membranes as models in membrane research (Chapter 2), In: Subcellular Biochemistry. Vol 20: Mycoplasma Cell Membranes, edited by Rottem S, Kahane I. Plenum Press, New York. pp. 1-28). The Mhyo membrane was prepared by osmotic lysis of the organisms and tested to determine if it increased [Ca^2+]i in ciliated tracheal cells. […]

Row | Molecule | effect on trypsin-induced [Ca2+]i increase [1] | effect on tryptic Mhyo polypeptide fragment-induced [Ca2+]i increase [2] | effect on tryptic Mhyo polypeptide fragment-induced [Ca2+]i increase ([2]; listed as TI) | effect of protease pretreatment on membrane-induced [Ca2+]i increase [3]
1 | B1 | inhibited | failed to block | failed to inhibit | 
2 | B2 |  |  |  | blocked; also recorded: abolished
3 | B3 |  |  |  | abolished
